# From paper PMC9354405
# Target: HBV S/preS1^16-42 chimeric antigen (Hepatitis B virus, genotype D) (UniProt P03138)
# Experiment: SDS-PAGE under non-reducing conditions with western blot; lysates of transfected HEK293T cells, -DTT, detected with anti-preS1 antibodies; dimers of ~50 kDa held by intermolecular disulfide bonds
substance,measurement,value
HBV S/preS1^16-42 chimeric antigen (from UniProt P03138 16-42),stoichiometry N,2
